# T1: XMcm2 (Xenopus (endogenous in Xenopus egg …, UniProt P55861 1-886))
# T1 sequence (looked up): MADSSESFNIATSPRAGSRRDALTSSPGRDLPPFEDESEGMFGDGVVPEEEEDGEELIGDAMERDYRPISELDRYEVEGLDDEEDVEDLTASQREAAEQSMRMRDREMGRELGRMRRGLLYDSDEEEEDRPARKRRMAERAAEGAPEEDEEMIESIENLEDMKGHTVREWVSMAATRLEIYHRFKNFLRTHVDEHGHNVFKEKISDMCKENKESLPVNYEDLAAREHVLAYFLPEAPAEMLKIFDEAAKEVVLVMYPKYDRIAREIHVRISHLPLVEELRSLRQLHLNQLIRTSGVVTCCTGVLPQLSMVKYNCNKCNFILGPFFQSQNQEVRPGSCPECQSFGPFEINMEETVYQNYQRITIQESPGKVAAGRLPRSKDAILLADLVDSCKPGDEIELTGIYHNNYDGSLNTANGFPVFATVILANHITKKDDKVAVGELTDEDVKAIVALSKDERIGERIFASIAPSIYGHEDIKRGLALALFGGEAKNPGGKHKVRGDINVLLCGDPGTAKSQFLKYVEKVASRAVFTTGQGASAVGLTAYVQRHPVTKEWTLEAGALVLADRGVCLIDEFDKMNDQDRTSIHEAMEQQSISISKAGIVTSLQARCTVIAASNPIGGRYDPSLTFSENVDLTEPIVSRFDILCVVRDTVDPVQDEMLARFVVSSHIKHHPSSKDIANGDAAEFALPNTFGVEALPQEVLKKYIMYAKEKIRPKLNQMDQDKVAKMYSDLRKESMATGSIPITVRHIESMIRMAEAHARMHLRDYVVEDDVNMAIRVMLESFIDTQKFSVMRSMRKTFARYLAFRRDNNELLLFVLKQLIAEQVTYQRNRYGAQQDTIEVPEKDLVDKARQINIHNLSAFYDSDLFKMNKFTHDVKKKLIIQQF
# T2: XMcm3 (Xenopus (endogenous in Xenopus egg …, UniProt P49739 1-807))
# T2 sequence (looked up): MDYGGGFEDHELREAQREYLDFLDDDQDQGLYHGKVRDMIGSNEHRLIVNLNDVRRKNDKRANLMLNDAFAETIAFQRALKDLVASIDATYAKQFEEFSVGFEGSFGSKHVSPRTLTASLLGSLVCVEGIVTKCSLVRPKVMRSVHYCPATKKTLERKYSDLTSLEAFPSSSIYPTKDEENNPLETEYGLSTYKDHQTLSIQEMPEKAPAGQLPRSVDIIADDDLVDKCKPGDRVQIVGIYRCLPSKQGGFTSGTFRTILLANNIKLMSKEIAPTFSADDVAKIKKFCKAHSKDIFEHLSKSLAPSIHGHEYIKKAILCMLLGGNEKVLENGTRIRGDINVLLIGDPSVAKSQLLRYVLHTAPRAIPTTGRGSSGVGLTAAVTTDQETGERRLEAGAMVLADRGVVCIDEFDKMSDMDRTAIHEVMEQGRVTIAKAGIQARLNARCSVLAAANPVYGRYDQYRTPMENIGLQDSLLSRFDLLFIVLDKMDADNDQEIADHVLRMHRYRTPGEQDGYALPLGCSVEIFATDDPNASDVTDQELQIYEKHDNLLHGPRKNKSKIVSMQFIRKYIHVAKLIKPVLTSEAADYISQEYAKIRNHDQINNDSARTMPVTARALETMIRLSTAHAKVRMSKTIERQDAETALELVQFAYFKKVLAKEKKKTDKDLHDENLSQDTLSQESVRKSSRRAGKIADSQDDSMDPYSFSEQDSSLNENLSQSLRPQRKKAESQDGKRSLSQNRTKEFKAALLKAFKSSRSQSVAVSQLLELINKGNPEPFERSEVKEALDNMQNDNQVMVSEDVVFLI
# B1: XMcm6 (natural protein, UniProt Q5FWY4 1-821, looked up)
# chain: MELGGPAAAGDTDIAGQQLFKDELSDKCQKLFLEFLEECKGKDGSNLYVSAAEELIRPERNTLAVNFTDIEYYNQQLATTIQEEYYRVYPHLCRAVRSFARQMGNIPANKEFYIAFSDFPARQKIRELSSAKIGTLLRISGQVVRTHPVHPELVSGTFLCMDCQSIVKDVEQQFRYTQPTICKNPVCANRRRFTLDTNKSRFVDFQKVRIQETQAELPRGAIPRSVEIILRAEAVESAMAGDRCDFTGTLIVVPDVSALAAGDARMETGAKVTGGEGFNSEGVQGLKALGVRDLSYRLAFLACYVGATNPRFGGKDLREEDQTAESIKNQMTVQEWEKVFEMSQDKNLYHNLCTSLFPTIHGNDEIKRGVLLMLFGGVPKTTMEGTSLRGDINVCIVGDPSTSKSQFLKHVEEFSPRAVYTSGKASSAAGLTAAVVKDEESHEFVIEAGALMLADNGVCCIDEFDKMDLKDQVAIHEAMEQQTISITKAGVKATLNARTSILAAANPVGGRYERSKSLKHNVNLSAPIMSRFDLFFILVDECNEVTDYAIARRIVDLHARNEESIERVYSIEDIQRYLLFARQFQPKITKEAEEFIVEQYRRLRQRDGSGVAKSSWRITVRQLESLIRLSESMARMHCSDEVQPKHVKEAFRLLSKSIIRVDTPDVSFDQGEDEKNIEGENNGNLNNGEEAMETNQDEPINEKPSSNAGLKMSFAEYKQISNLLVLYMQKMEETEEECHLTTTDLVNWYLKEMEAEIETETELILKKRLIEKVIHRLIYYDHILIELNKSELKTMDDTKETGEDAAEDRILVVNPNYMLED
# B2: XMcm4 (natural protein, UniProt P30664 1-863, looked up)
# chain: MSSPTSTPSRRRNKRGRGSNPPTPHGEEVQSPPSQRRRTEDSTSIGELLPMPTSPSGDVQSPSGQELLFSSPAPSRHSAHQSELDLSSPLTYGTPSSRVEGTPRSGIRGTPARQRPDLGSARKVKQVDLHSDQPAAEELVTSEQSLGQKLVIWGTDVNVATCKEKFQRFVQRFIDPSAKEEDNVGLDLNEPIYMQRLEEINVVGDPFLNIDCDHLRNFDQDLYRQLVCYPQEVIPTFDMAANEIFFERYPDSILEHQIQVRPYNALKTRNMRSLNPEDIDQLITISGMVIRTSQIIPEMQEAFFKCQVCAFTTRVEIDRGRIAEPSVCKHCNTTHSMALIHNRSMFSDKQMIKLQESPEDMPAGQTPHTTILYGHNDLVDKVQPGDRVNVTGIYRAVPIRVNPRVRNVKSVYKTHIDVIHYRKTDSKRLHGIDEDTEQKLFTEERVAMLKELAAKPDIYERLAAALAPSIYEHEDIKKGILLQLFGGTRKDFSHTGRGKFRAEVNILLCGDPGTSKSQLLQYVFNLVPRGQYTSGKGSSAVGLTAYVMKDPETRQLVLQTGALVLSDNGICCIDEFDKMNESTRSVLHEVMEQQTLSIAKAGIICQLNARTSVLAAANPVESQWNPKKTTIENIQLPHTLLSRFDLIFLMLDPQDEAYDRRLAHHLVALYYQSEEQMKEEHLDMAVLKDYIAYARTYVNPRLSEEASQALIEAYVSMRKIGSGRGMVSAYPRQLESLIRLSEAHAKVRFSNKVETIDVEEAKRLHREALKQSATDPRTGIVDISILTTGMSATARKRKEELAQVLKKLIQSKGKTPALKYQQLFEDLRGQSDAAITKDMFDEALHALADDDYLTVTGKTVRLL
# B3: XMcm7 (natural protein, UniProt Q91876 1-720, looked up)
# chain: MPRDYQTEKEKCKTFLQEFYKDDEIGKKHFKYGVQLANIAHREQVALYIDLDDLAEEDPELVDAICENTRRYTNLFADAVQELLPQYKEREVVHKDALDVYIEHRLMMEQRGRDPNEMRDSQNQYPPELMRRFELYFKAPSSSKARVVRDVKADSIGKLVNIRGIVTRVTEVKPMMVVATYTCDQCGAETYQPIQSPTFMPLIMCPSRECQTNRSGGRLYLQTRGSKFIKFQELKIQEHSDQVPVGNIPRCMSVYVRGENTRLAQPGDHVGITGVFLPMLRTGFRQVVQGLLSETYLECHRLVKMNKSEDDELGTEELSEEELRQITEEDFYEKLAASIAPEIYGHEDVKKALLLLLVGGVDNSPRGMKIRGNINICLMGDPGVAKSQLLSYIDRLAPRSQYTTGRGSSGVGLTAAVMKDPVTGEMTLEGGALVLADQGVCCIDEFDKMMDTDRTAIHEVMEQQTISIAKAGIMTTLNARCSILAAANPAYGRYNPKKTVEQNIQLPAALLSRFDVLWLIQDKPDRDNDLRLAQHITYVHQHSKQPPSQFQPLDMKLMRRYITMCKRKQPAIPEALADYLTAAYVEMRKEARTNKDMTFTSARTLLSVLRLSTALARLRLEDVVEKEDVNEAMRLMEMSKDSLLGDKGHTSRTQRPADVIFSTIREMVPEKGARSVKYSEAEQRCVSKGFTPAQFEAALEEYEELNVWLVNQARTKITFV
# B4: XMcm5 (natural protein, UniProt P55862 1-735, looked up)
# chain: MSGFDDLGVYYSDSFGGEQQVGDDGQAKKSQLKKRFREFLRQYRIGTDRTGFTFKYRDELKRHYNLGEYWIEVEMEDLASFDEDLADYLYKQPTEHLQLLEEAAQEVADEVTRPRPAGEETIQEIQVMLRSDANPANIRSLKSEQMSHLVKIPGIIIAATAVRAKATKISIQCRSCRNTIGNIAVRPGLEGYAMPRKCNTEQAGRPNCPLDPYFIIPDKCKCVDFQTLKLQESPDAVPHGELPRHMQLYCDRYLCDKVVPGNRVTIMGIYSIRKSGKTSTKGRDRVGVGIRSSYIRVVGIQVDTEGTGRSAAGAITPQEEEEFRRLAAKPDIYETVAKSIAPSIYGSSDIKKAIACLLFGGSRKRLPDGLTRRGDVNLLMLGDPGTAKSQLLKFVERCSPIGVYTSGKGSSAAGLTASVMRDPVSRNFIMEGGAMVLADGGVVCIDEFDKMREDDRVAIHEAMEQQTISIAKAGITTTLNSRCSVLAAANSVYGRWDDTKGEENIDFMPTILSRFDMIFIVKDEHNEQRDMTLAKHVMNVHLSARTQSSSVEGEVDLNTLKKYIAYCRAKCGPRLSAEAAEKLKNRYILMRSGAREHERETEKRSSIPITVRQLEAIVRISESLGKMKLQPFATETDVEEALRLFQVSTLDAAMSGSLSGVEGFTTQEDQEMLSRIEKQMKKRFAIGSQVSEHSIIQDFLKQKYPEHAIHKVLSLMMRRGEIQHRLQRKVLYRIK
# Legend:
# Assay in all cases: co-purification by chromatography with densitometry
# [1] = biological target: T1, XMcm2
# [2] = biological target: B2
# [3] = biological target: T2, XMcm3
Binder,stoichiometry N [1],stoichiometry N [2],binding result [3],stoichiometry N [3]
B1,1.1 XMcm6 per 1.0 XMcm2,1 XMcm6 per 1.0 XMcm4,–,–
B2,1.1 XMcm4 per 1.0 XMcm2,–,–,–
B3,1.1 XMcm7 per 1.0 XMcm2,1.1 XMcm7 per 1.0 XMcm4,binds,–
B4,–,–,–,1.2 XMcm5 per 1.0 XMcm3

# From article PMC3626232 (The Journal of biological chemistry, 2000)
